Test system: fibrin-related adhesions between the stomach and the liver, the intestines and the omentum
Test: Acetic acid injury to the serosal surface of the rat stomach: formation of adhesions
Assay type: in vivo
Settings: minipump in abdominal cavity, outlet free and open; wound covered by chitosan membrane; up to 10 days
Procedure: The serosal surface of the stomach of an adult anaesthetised rat was exposed in an area of 7 mm diameter to 80% acetic acid over 60 seconds. After rinsing with buffered saline solution, an osmotic minipump (Alza 2001, volume about 220 μL; pumping rate about 1 μL/h; Alza Corp.; Palo Alto, Calif., USA; prefilled with a solution of the thrombin inhibitor melagatran, 2-100 μg/mL) was implanted into the peritoneal cavity, with the outlet of the pump kept open, and delivered its content into the abdominal cavity. The wounded area was covered by a chitosan membrane or, in an alternative experiment, a gel, having a diameter several millimeters larger than that of the injured area.
The serosal surface of the stomach of an adult, anaesthetised rat was exposed in an area of 7 mm diameter to 80% acetic acid over 60 seconds. After rinsing with buffered saline, the wounded area was covered by a chitosan membrane or, in an alternative experiment, a gel, having a diameter several millimeters larger than the injured area. An osmotic minipump (Alza 2001, volume about 220 μL; pumping rate about 1 μL/h; Alza Corp.; Palo Alto, Calif., USA; prefilled with a solution of the thrombin inhibitor melagatran, 2-100 μg/mL) was implanted subcutaneously, with the outlet of the pump kept open, delivering its content into the adjacent tissue. […]

B1: Actilyse: recombinant human tissue-plasminogen-activator; Boehringer Ingelheim (protein, UniProt P00750 36-562, looked up)
Tissue-type plasminogen …: SYQVICRDEKTQMIYQQHQSWLRPVLRSNRVEYCWCNSGRAQCHSVPVKSCSEPRCFNGGTCQQALYFSDFVCQCPEGFAGKCCEIDTRATCYEDQGISYRGTWSTAESGAECTNWNSSALAQKPYSGRRPDAIRLGLGNHNYCRNPDRDSKPWCYVFKAGKYSSEFCSTPACSEGNSDCYFGNGSAYRGTHSLTESGASCLPWNSMILIGKVYTAQNPSAQALGLGKHNYCRNPDGDAKPWCHVLKNRRLTWEYCDVPSCSTCGLRQYSQPQFRIKGGLFADIASHPWQAAIFAKHRRSPGERFLCGGILISSCWILSAAHCFQERFPPHHLTVILGRTYRVVPGEEEQKFEVEKYIVHKEFDDDTYDNDIALLQLKSDSSRCAQESSVVRTVCLPPADLQLPDWTECELSGYGKHEALSPFYSERLKEAHVRLYPSSRCTSQHLLNRTVTDNMLCAGDTRSGGPQANLHDACQGDSGGPLVCLNDGRMTLVGIISWGLGCGQKDVPGVYTKVTNYLDWIRDNMRP
For B1, the “fibrin network or strands of newly formed granulation tissue connecting the stomach with the liver, the intestines and the omentum” value was “No fibrin network, nor any strands of newly formed granulation tissue, could be detected”.

Source: patent US6174855A, “Pharmaceutical compositions comprising thrombin inhibitors and their use in the control of wound healing processes” (AstraZeneca AB, priority 1996, dated 2001)
